Results published in IntAct's records for PubMed 16319069.

B1: 5-hydroxytryptamine receptor 2C (Homo sapiens), P28335 (parent)
chain: MVNLRNAVHSFLVHLIGLLVWQSDISVSPVAAIVTDIFNTSDGGRFKFPDGVQNWPALSIVIIIIMTIGGNILVIMAVSMEKKLHNATNYFLMSLAIADMLVGLLVMPLSLLAILYDYVWPLPRYLCPVWISLDVLFSTASIMHLCAISLDRYVAIRNPIEHSRFNSRTKAIMKIAIVWAISIGVSVPIPVIGLRDEEKVFVNNTTCVLNDPNFVLIGSFVAFFIPLTIMVITYCLTIYVLRRQALMLLHGHTEEPPGLSLDFLKCCKRNTAEEENSANPNQDQNARRRKKKERRPRGTMQAINNERKASKVLGIVFFVFLIMWCPFFITNILSVLCEKSCNQKLMEKLLNVFVWIGYVCSGINPLVYTLFNKIYRRAFSNYLRCNYKVEKKPPVRQIPRVAATALSGRELNVNIYRHTNEPVIEKASDNEPGIEMQVENLELPVNPSSVVSERISSV

Variants of: B1
Conditions: with arrb2_mouse Arrb2, Q91YI4
Chain of arrb2_mouse Arrb2, Q91YI4 (Q91YI4 whole entry): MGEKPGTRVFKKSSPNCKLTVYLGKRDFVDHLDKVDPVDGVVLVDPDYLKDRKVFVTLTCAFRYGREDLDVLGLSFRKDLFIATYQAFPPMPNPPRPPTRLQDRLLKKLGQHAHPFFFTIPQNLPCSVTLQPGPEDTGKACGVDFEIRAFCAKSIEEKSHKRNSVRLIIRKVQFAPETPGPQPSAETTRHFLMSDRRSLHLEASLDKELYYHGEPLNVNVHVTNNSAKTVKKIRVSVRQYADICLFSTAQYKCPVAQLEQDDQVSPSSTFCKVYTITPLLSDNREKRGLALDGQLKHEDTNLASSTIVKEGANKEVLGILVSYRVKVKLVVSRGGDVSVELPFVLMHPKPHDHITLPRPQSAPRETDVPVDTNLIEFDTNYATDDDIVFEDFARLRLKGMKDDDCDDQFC

effect of a mutation on the interaction | Variant
decreasing interaction | P159A
